Sequences and labels used below:
B1: S. cerevisiae Abp1 (full length; SH3 domain 535-592 mutated) / Hua2 (parent complex)
chain 1: MALEPIDYTTHSREIDAEYLKIVRGSDPDTTWLIISPNAKKEYEPESTGSSFHDFLQLFDETKVQYGLARVSPPGSDVEKIIIIGWCPDSAPLKTRASFAANFAAVANNLFKGYHVQVTARDEDDLDENELLMKISNAAGARYSIQTSSKQQGKASTPPVKKSFTPSKSPAPVSKKEPVKTPSPAPAAKISSRVNDNNDDDDWNEPELKERDFDQAPLKPNQSSYKPIGKIDLQKVIAEEKAKEDPRLVQKPTAAGSKIDPSSDIANLKNESKLKRDSEFNSFLGTTKPPSMTESSLKNDDDKVIKGFRNEKSPAQLWAERKAKQNSGNAETKAEAPKPEVPEDEPEGEPDVKDLKSKFEGLAASEKEEEEMENKFAPPPKKSEPTIISPKPFSKPQEPVKAEEAEQPKTDYKKIGNPLPGMHIEADNEEEPEENDDDWDDDEDEAAQPPLPSRNVASGAPVQKEEPEQEEIAPSLPSRNSIPAPKQEEAPEQAPEEEIEEEAEEAAPQLPSRSSAAPPPPPRRATPEKKPKENPWATAEYDYDAAEDNELTFVENDKIINIEFVDDDWWLGELEKDGSKGLFPSNYVSLGN
chain 2: MQQTKFGKMYLDHDSVVEYSEDEIVEADRITLGYKKRLSMIENQMRHLLEDFSLDVQQIEPILADLQKYYDAFLQLLQKRNKSLQCKRSTHQPVPSPMNSQTSTNAKVNLSGKLMKFQLNSVQKFDEENILRILQNKIEFEHYFQIDKGKKQKVLLLAVYQCLNGPTRLHKVLNIEGIIHNNSIRTILGKQVSSSKWTVFLYDVKLVLLAHRQDVPNLETSKMIVRYGDLFPCALYFKDHTAY

Variants of B1 are the subject of this assay. As to the kind of experiment: DHFR protein-fragment complementation in yeast (Abp1-DHFR F[1,2] x partner-DHFR F[3]), deep mutational scanning, second methotrexate selection vs reference; S. cerevisiae, DHFR-PCA selection in liquid with methotrexate at 30 C, two 72 h selections (the score uses the second); reference = the pre-selection culture.
chain 1 MALEPIDYTTHSREIDAEYLKIVRGSDPDTTWLIISPNAKKEYEPESTGSSFHDFLQLFDETKVQYGLARVSPPGSDVEKIIIIGWCPDSAPLKTRASFAANFAAVANNLFKGYHVQVTARDEDDLDENELLMKISNAAGARYSIQTSSKQQGKASTPPVKKSFTPSKSPAPVSKKEPVKTPSPAPAAKISSRVNDNNDDDDWNEPELKERDFDQAPLKPNQSSYKPIGKIDLQKVIAEEKAKEDPRLVQKPTAAGSKIDPSSDIANLKNESKLKRDSEFNSFLGTTKPPSMTESSLKNDDDKVIKGFRNEKSPAQLWAERKAKQNSGNAETKAEAPKPEVPEDEPEGEPDVKDLKSKFEGLAASEKEEEEMENKFAPPPKKSEPTIISPKPFSKPQEPVKAEEAEQPKTDYKKIGNPLPGMHIEADNEEEPEENDDDWDDDEDEAAQPPLPSRNVASGAPVQKEEPEQEEIAPSLPSRNSIPAPKQEEAPEQAPEEEIEEEAEEAAPQLPSRSSAAPPPPPRRATPEKKPKENPWATAEYDYDAAESNELTFVENDKIINIEFVDDDWWLGELEKDGSKGLFPSNYVSLGN [chain 1 D548S]: the screen value is 0.431 DMS score: mean over two replicates of log2(f_test/f_ref + 0.5)/ln 2, minus the synonymous-codon median (not a log2 …. The figure for chain 1 MALEPIDYTTHSREIDAEYLKIVRGSDPDTTWLIISPNAKKEYEPESTGSSFHDFLQLFDETKVQYGLARVSPPGSDVEKIIIIGWCPDSAPLKTRASFAANFAAVANNLFKGYHVQVTARDEDDLDENELLMKISNAAGARYSIQTSSKQQGKASTPPVKKSFTPSKSPAPVSKKEPVKTPSPAPAAKISSRVNDNNDDDDWNEPELKERDFDQAPLKPNQSSYKPIGKIDLQKVIAEEKAKEDPRLVQKPTAAGSKIDPSSDIANLKNESKLKRDSEFNSFLGTTKPPSMTESSLKNDDDKVIKGFRNEKSPAQLWAERKAKQNSGNAETKAEAPKPEVPEDEPEGEPDVKDLKSKFEGLAASEKEEEEMENKFAPPPKKSEPTIISPKPFSKPQEPVKAEEAEQPKTDYKKIGNPLPGMHIEADNEEEPEENDDDWDDDEDEAAQPPLPSRNVASGAPVQKEEPEQEEIAPSLPSRNSIPAPKQEEAPEQAPEEEIEEEAEEAAPQLPSRSSAAPPPPPRRATPEKKPKENPWATAEYDYDAAEDNELTFVENDKIINIEFVDDDWWLGELEKDGSKGLFPSNYVSLGH [chain 1 N592H] is -1.31 DMS score: mean over two replicates of log2(f_test/f_ref + 0.5)/ln 2, minus the synonymous-codon median (not a log2 …; for chain 1 MALEPIDYTTHSREIDAEYLKIVRGSDPDTTWLIISPNAKKEYEPESTGSSFHDFLQLFDETKVQYGLARVSPPGSDVEKIIIIGWCPDSAPLKTRASFAANFAAVANNLFKGYHVQVTARDEDDLDENELLMKISNAAGARYSIQTSSKQQGKASTPPVKKSFTPSKSPAPVSKKEPVKTPSPAPAAKISSRVNDNNDDDDWNEPELKERDFDQAPLKPNQSSYKPIGKIDLQKVIAEEKAKEDPRLVQKPTAAGSKIDPSSDIANLKNESKLKRDSEFNSFLGTTKPPSMTESSLKNDDDKVIKGFRNEKSPAQLWAERKAKQNSGNAETKAEAPKPEVPEDEPEGEPDVKDLKSKFEGLAASEKEEEEMENKFAPPPKKSEPTIISPKPFSKPQEPVKAEEAEQPKTDYKKIGNPLPGMHIEADNEEEPEENDDDWDDDEDEAAQPPLPSRNVASGAPVQKEEPEQEEIAPSLPSRNSIPAPKQEEAPEQAPEEEIEEEAEEAAPQLPSRSSAAPPPPPRRATPEKKPKENPWATAAYDYDAAEDNELTFVENDKIINIEFVDDDWWLGELEKDGSKGLFPSNYVSLGN [chain 1 E540A] it is -0.942 DMS score: mean over two replicates of log2(f_test/f_ref + 0.5)/ln 2, minus the synonymous-codon median (not a log2 …; for chain 1 MALEPIDYTTHSREIDAEYLKIVRGSDPDTTWLIISPNAKKEYEPESTGSSFHDFLQLFDETKVQYGLARVSPPGSDVEKIIIIGWCPDSAPLKTRASFAANFAAVANNLFKGYHVQVTARDEDDLDENELLMKISNAAGARYSIQTSSKQQGKASTPPVKKSFTPSKSPAPVSKKEPVKTPSPAPAAKISSRVNDNNDDDDWNEPELKERDFDQAPLKPNQSSYKPIGKIDLQKVIAEEKAKEDPRLVQKPTAAGSKIDPSSDIANLKNESKLKRDSEFNSFLGTTKPPSMTESSLKNDDDKVIKGFRNEKSPAQLWAERKAKQNSGNAETKAEAPKPEVPEDEPEGEPDVKDLKSKFEGLAASEKEEEEMENKFAPPPKKSEPTIISPKPFSKPQEPVKAEEAEQPKTDYKKIGNPLPGMHIEADNEEEPEENDDDWDDDEDEAAQPPLPSRNVASGAPVQKEEPEQEEIAPSLPSRNSIPAPKQEEAPEQAPEEEIEEEAEEAAPQLPSRSSAAPPPPPRRATPEKKPKENPWATAEYDYDAAEDNELRFVENDKIINIEFVDDDWWLGELEKDGSKGLFPSNYVSLGN [chain 1 T552R] it is -1.02 DMS score: mean over two replicates of log2(f_test/f_ref + 0.5)/ln 2, minus the synonymous-codon median (not a log2 …. In the case of chain 1 MALEPIDYTTHSREIDAEYLKIVRGSDPDTTWLIISPNAKKEYEPESTGSSFHDFLQLFDETKVQYGLARVSPPGSDVEKIIIIGWCPDSAPLKTRASFAANFAAVANNLFKGYHVQVTARDEDDLDENELLMKISNAAGARYSIQTSSKQQGKASTPPVKKSFTPSKSPAPVSKKEPVKTPSPAPAAKISSRVNDNNDDDDWNEPELKERDFDQAPLKPNQSSYKPIGKIDLQKVIAEEKAKEDPRLVQKPTAAGSKIDPSSDIANLKNESKLKRDSEFNSFLGTTKPPSMTESSLKNDDDKVIKGFRNEKSPAQLWAERKAKQNSGNAETKAEAPKPEVPEDEPEGEPDVKDLKSKFEGLAASEKEEEEMENKFAPPPKKSEPTIISPKPFSKPQEPVKAEEAEQPKTDYKKIGNPLPGMHIEADNEEEPEENDDDWDDDEDEAAQPPLPSRNVASGAPVQKEEPEQEEIAPSLPSRNSIPAPKQEEAPEQAPEEEIEEEAEEAAPQLPSRSSAAPPPPPRRATPEKKPKENPWATAEYDYDAAEDNELTFVENDKIINIEFVDDDWWLGELEKDGSKGRFPSNYVSLGN [chain 1 L582R] it was -1.77 DMS score: mean over two replicates of log2(f_test/f_ref + 0.5)/ln 2, minus the synonymous-codon median (not a log2 ….

Source of the values: article PMC7954794 (2021).
